Test [1] concerns the target native SARS-CoV 3CLpro (3C-like protease, nsp5) with an n-terminal methionine (SARS-CoV (Urbani strain)) (UniProt P0C6X7). The test is described as follows: enzyme activity against enzyme concentration.
Test [2] has the same target. Briefly: enzyme activity against enzyme concentration. This is another data set of the same source.

Like-named read-outs stand apart in the source and are kept apart here.

As for “native SARS-CoV 3CLpro (3C-like protease, nsp5) with an n-terminal methionine (from UniProt P0C6X7 3241-3544) (enzyme)”, the Kd in test [1] was 250 to 1000 nM; in test [2] it was 230 nM.

(Values after PMC4036818.)
